# Data taken from the RNAGym collection of RNA variant scans (doi:10.1073/pnas.2313332121).
# This sample holds only a part of the variants without activity.
# B1: TPR 5TU (parent)
# chain: GGAUCUUCUCGAUCUAACAAAAAAGACAAAUCUGCCACAAAGCUUGAGAGCAUCUUCGGAUGCAGAGGCGGCAGCCUUCGGUGGCGCGAUAGCGCCAACGUUCUCAACUAUGACACGCAAAACGCGUGCUCCGUUGAAUGGAGUUUAUCAUG
# Variants of: B1
# Assay: polymerase ribozyme fitness, log enrichment relative to wild type (log ratio); higher = more active; in vitro selection for triplet polymerase activity
# How it was run: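 Each subunit of a heterodimeric triplet polymerase ribozyme was represented by a PCR-built, transcribed mutant library that underwent triplicate single-round in vitro selection with frozen incubation at −7 °C. Extended constructs were recovered by gel excision, streptavidin-bead capture and RT-PCR, and Illumina sequencing of input and output libraries kept genotypes with ≥10 input reads and ≥1 read per output. Fitness is the logarithm of genotype enrichment relative to wild-type enrichment, from inverse-variance-weighted replicate averages, with a logarithm base of 2.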
row,Variant,polymerase ribozyme fitness (log ratio)
1,GGAUCUUCUCGAUCUAACAAAAAAGACAAAUCUGCCACAAAGCUUGAUAGCAUCUUCGGAUGCAGAGGCGGCAGCCUUCUGUGGCGCGAUAGCGCGAACGUUCUCAACUAUGACACGCAAAACGCGUGCUCCGUUGAAUGGAGUUUAUCAUG,≤ -4.2
2,GGAUCUUCUCGAUCUAACAAAAAAGACAAAUCUGCCACAAAGCUUGACAGCAUCUUCGGAUACAGAGGCGGCAGCCUUCGGUGGCGCGAUAGCGCCAACGUUCUCAACUAUGACACGCAAAACGCGUGCUCCGUUGAAUGGAGUUUAUCAUG,-3.59
3,GGAUCUUCUCGAUCUAACAAAAAAGACAAAUCUGCCACAAAGCUUGACAGCAUCUUCGCAUGCAGAGGCGGCAGCCUUCGGGGGCGCGAUAGCGCCAACGUUCUCAACUAUGACACGCAAAACGCGUGCUCCGUUGAAUGGAGUUUAUCAUG,0.0275
4,GGAUCUUCUCGAUCUAACAAAAAAGACAAAUCUGCCACAAAGCUUGAUUGCAUCUUCGGAUGCAGAGGCGGCAGCCUUCGGUGGCGCGAUAGCGCCAGCGUUCUCAACUAUGACAGGCAAAACGCGUGCUCCUUUGAAUGGAGUUUAUCAUG,≤ -4.2
5,GGAUCUUCUCGAUCUAACAAAAAAGACAAAUCUGCCACAAAGCUUGAUAGCAUCUUCGGAUGCAGAGGCGGCAACCUUCGGUGGGGCGAUAGCGCCAACGUUCUCAACUAUGACCCGCAAAACGCGUGCUCCGAUGAAUGGAGUUUAUCAUG,≤ -4.2
6,GGAUCUUCUCGAUCUAACAAAAAAGACAAAUCUGCCACAAAGCUUGAGCGCAUCUUCGGAUGCAGAGGCGGCGGCCUUCGGUGGCGCGACAGCGCCAACGUUCUCAACUAUGACACGCAAAACGCGUGCUCCGUUGAAUGGAGUUUAUUAUG,≤ -4.2
7,GGAUCUUCUCGAUCUAACAAAAAAGACAAAUCUGCCACAAAGCUUGAUAGCAUCUUCGGAUGCAGAGGCGGCAGCCUUCGGUGGUGCGAUAGCGCCAACGUUCUCAACUAUGACACUCAAAUCGCGUGCUCCGUUGAAUGGAGUUUAUCAUG,0.609
8,GGAUCUUCUCGAUCUAACAAAAAAGACAAAUCUGCCACAAAGCUUGACAGCAUCUUCGGAAGCAGAGGCGGCAGCCUUCGGUGGCGCGAUAGUGCCAACGUUCUCAACUAUGACACGCAAAACGCGUGCUCCGUUGAAUGGAGUUUAUCAAG,≤ -4.2
9,GGAUCUUCUCGAUCUAACAAAAAAGACAAAUCUGCCACAAAGCUUGACAGCAUCUUCGUAUGCAGAGGCGGCAGCCUUCGGUGGCGCGAUAGCACCAACGUUCUCAACUAUGACACGCUAAACGCGUGCUCCGUUGAAUGGAGUUUAUCAUG,-1.58
10,GGAUCUUCUCGAUCUAACAAAAAAGACAAAUCUGCCACAAAGCUUGACAGCAUCUUCGGAUGCAGAGGCGGCAGCCUUCGGUGGCGCGAUAGCGCCAACGUUCUCAACUAUGACACGCAAAACGCGUGCUCCGAUGAAUGGAGUUUAUCAUG,-1.01
11,GGAUCUUCUCGAUCUAACAAAAAAGACAAAUCUGCCACAAAGCUUGAGCGCGUCUUCGGAUGCAGAGGCGGCAGCCUUCGAUGGCGUGAUAGCGCCAACGUCCUCAACUAUGAGACGCAAAACGCGUGCUCCGUUGAAUGGAGUUUAUCGUG,≤ -4.2
12,GGAUCUUCUCGAUCUAACAAAAAAGACAAAUCUGCCACAAAGCUUGACAGCAUCUUCGGAUGCAGAGACGGCAGCCUUUGGUGGCGCGAUAGCGCCAAAGUUCUCAACUAUGACACGCAAAACGCGUGCUCCGUUGAAUGGAGUUUAUCAUG,≤ -4.2
13,GGAUCUUCUCGAUCUAACAAAAAAGACAAAUCUGCCACAAAGCUUGAGCGCGUCUUCGGAUGCAGAGGCGGCAGCCUCCGGUGGCGCGAUAGGGCCAACGUUCUCAACUAUGACACGCAAAACGCGUGCUCCGUUGAAUGGAGUUCAUCAUG,≤ -4.2
14,GGAUCUUCUCGAUCUAACAAAAAAGACAAAUCUGCCACAAAGCUUGAUAGCAUCUUCGGAUGCAGAGGCGGCAGCCUUCGGUGGCGCGAUAGCGCCAACGUUCUCAACUAUGACACGAAAAACGCGUGCUCCGUUGAAUGGAGUUUAUCAUG,-0.303
15,GGAUCUUCUCGAUCUAACAAAAAAGACAAAUCUGCCACAAAGCUUGAUAGCAUCUUCGGAUGCAGAGGCGGCAGCCUUCGGUGGCGCGAUAGCGCCAACGUUCUCAACUAUGACACGCAAAACGCGUGCUCCGUCGAAUGGACUUUAUCAUG,-3.78
16,GGAUCUUCUCGAUCUAACAAAAAAGACAAAUCUGCCACAAAGCUUGAUAGCAUCUUCGGAUGCAGAGGCGGCAGCCUACGGUGGCGCGAUUGCGCCAACGUGCUCAACUAUGACACGCAAAACGCGUGCUCCGUUGAAUGGAGCUUAUCAUG,≤ -4.2
17,GGAUCUUCUCGAUCUAACAAAAAAGACAAAUCUGCCACAAAGCUUGAGCGCUUCUUCGGAUGCAGAGGCGGCAGCCUUCGGUGGCGCGAUAGCGCCAACGUUCUCAACUAUGACACGCAAAACGCGUGCUCGGUUGAAUGGAGUUUAUCAUG,≤ -4.2
18,GGAUCUUCUCGAUCUAACAAAAAAGACAAAUCUGCCACAAAGCUUGAGCGCCUCUUCGGAUGCAGAGUCGGCAGCCUUCGGUGACGCGAUAGCGCCAACGUUCUCAACUAUGACACGCAAAACGCGUGCUCCGUUGAAUAGAGUUUAUCAUG,≤ -4.2
19,GGAUCUUCUCGAUCUAACAAAAAAGACAAAUCUGCCACAAAGCUUGACAGCAUCUUCGGAUGCAGAGGCGGCAGCCUUCGGUGACGCGAUAGCGCCAACGUUCUCAACUAUGACACGCAAAACGCGUGCUCCGUUGAAUGGAGUUUAUCAUG,-3.2
